Assays:
[1] = tested on: HeLa Kyoto; assay: melting temperature (median over replicates), in situ; higher = more thermally stable
[2] = tested on: HeLa Kyoto; assay: thermal stability score vs G1/S (z-score of summed log2 fold changes over temperatures); higher = more thermally stable than in G1/S
[3] = tested on: HeLa Kyoto; assay: solubility in G1/S (NP-40 vs SDS abundance) (log2 ratio); higher = more soluble; details: cell cycle stage: G1/S
[4] = tested on: HeLa Kyoto; assay: solubility change mitosis vs G1/S (difference of NP-40 vs SDS log2 ratios) (log2 ratio difference); higher = more soluble in mitosis
[5] = cell cycle stage: early G1 (4.5 h after nocodazole release)
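For melting temperature (median over replicates), in situ in this document: HeLa Kyoto cells synchronized by double thymidine or nocodazole block, proteins quantified by TMT10plex mass spectrometry, three independent biological replicates.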
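For solubility change mitosis vs G1/S (difference of NP-40 vs SDS log2 ratios) in this document: synchronized HeLa Kyoto cells (double thymidine block for G1/S, nocodazole release for mitosis), protein amounts in NP-40 versus SDS lysates quantified by mass spectrometry, three biological replicates.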
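For solubility in G1/S (NP-40 vs SDS abundance) in this document: HeLa Kyoto cells arrested at G1/S by double thymidine block, proteins quantified by TMT10plex mass spectrometry in mild NP-40 versus SDS extracts, three biological replicates.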
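For thermal stability score vs G1/S (z-score of summed log2 fold changes over temperatures) in this document: synchronized HeLa Kyoto cells, proteins quantified by TMT10plex mass spectrometry, three biological replicates, mitosis taken 0.5 h after nocodazole release, G1/S directly after double thymidine block.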

| Sequence | melting temperature ([1]; cell cycle stage: G1/S) [°C] | melting temperature ([1]; cell cycle stage: mitosis) [°C] | thermal stability score [2, 5] | thermal stability score ([2]; cell cycle stage: mitosis) | solubility in G1/S (log2) [3] | solubility change mitosis (log2) [4] |
| --- | --- | --- | --- | --- | --- | --- |
| MANINLKEITLIVGVVTACYWNSLFCGFVFDDVSAILDNKDLHPSTPLKTLFQNDFWGTPMSEERSHKSYRPLTVLTFRLNYLLSELKPMSYHLLNMIFHAVVSVIFLKVCKLFLDNKSSVIASLLFAVHPIHTEAVTGVVGRAELLSSIFFLAAFLSYTRSKGPDNSIIWTPIALTVFLVAVATLCKEQGITVVGICCVYEVFIAQGYTLPLLCTTAGQFLRGKGSIPFSMLQTLVKLIVLMFSTLLLVVIRVQVIQSQLPVFTRFDNPAAVSPTPTRQLTFNYLLPVNAWLLLNPSELCCDWTMGTIPLIESLLDIRNLATFTFFCFLGMLGVFSIRYSGDSSKTVLMALCLMALPFIPASNLFFPVGFVVAERVLYVPSMGFCILVAHGWQKISTKSVFKKLSWICLSMVILTHSLKTFHRNWDWESEYTLFMSALKVNKNNAKLWNNVGHALENEKNFERALKYFLQATHVQPDDIGAHMNVGRTYKNLNRTKEAEESYMMAKSLMPQIIPGKKYAARIAPNHLNVYINLANLIRANESRLEEADQLYRQAISMRPDFKQAYISRGELLLKMNKPLKAKEAYLKALELDRNNADLWYNLAIVHIELKEPNEALKKNFNRALELNPKHKLALFNSAIVMQESGEVKLRPEARKRLLSYINEEPLDANGYFNLGMLAMDDKKDNEAEIWMKKAIKLQADFRSALFNLALLYSQTAKELKALPILEELLRYYPDHIKGLILKGDILMNQKKDILGAKKCFERILEMDPSNVQGKHNLCVVYFEEKDLLKAERCLLETLALAPHEEYIQRHLNIVRDKISSSSFIEPIFPTSKISSVEGKKIPTESVKEIRGESRQTQIVKTSDNKSQSKSNKQLGKNGDEETPHKTTKDIKEIEKKRVAALKRLEEIERILNGE [TMTC3] | 52.9 | 53.1 | 0.0389 | 0.555 | -0.0354 | -0.0802 |
| MANNDAVLKRLEQKGAEADQIIEYLKQQVSLLKEKAILQATLREEKKLRVENAKLKKEIEELKQELIQAEIQNGVKQIPFPSGTPLHANSMVSENVIQSTAVTTVSSGTKEQIKGGTGDEKKAKEKIEKKGEKKEKKQQSIAGSADSKPIDVSRLDLRIGCIITARKHPDADSLYVEEVDVGEIAPRTVVSGLVNHVPLEQMQNRMVILLCNLKPAKMRGVLSQAMVMCASSPEKIEILAPPNGSVPGDRITFDAFPGEPDKELNPKKKIWEQIQPDLHTNDECVATYKGVPFEVKGKGVCRAQTMSNSGIK [AIMP1] | 48.3 | 49.1 | -0.0166 | 1.24 | 0.468 | 0.02 |
| MANVSKKVSWSGRDRDDEEAAPLLRRTARPGGGTPLLNGAGPGAARQSPRSALFRVGHMSSVELDDELLDPDMDPPHPFPKEIPHNEKLLSLKYESLDYDNSENQLFLEEERRINHTAFRTVEIKRWVICALIGILTGLVACFIDIVVENLAGLKYRVIKGNIDKFTEKGGLSFSLLLWATLNAAFVLVGSVIVAFIEPVAAGSGIPQIKCFLNGVKIPHVVRLKTLVIKVSGVILSVVGGLAVGKEGPMIHSGSVIAAGISQGRSTSLKRDFKIFEYFRRDTEKRDFVSAGAAAGVSAAFGAPVGGVLFSLEEGASFWNQFLTWRIFFASMISTFTLNFVLSIYHGNMWDLSSPGLINFGRFDSEKMAYTIHEIPVFIAMGVVGGVLGAVFNALNYWLTMFRIRYIHRPCLQVIEAVLVAAVTATVAFVLIYSSRDCQPLQGGSMSYPLQLFCADGEYNSMAAAFFNTPEKSVVSLFHDPPGSYNPLTLGLFTLVYFFLACWTYGLTVSAGVFIPSLLIGAAWGRLFGISLSYLTGAAIWADPGKYALMGAAAQLGGIVRMTLSLTVIMMEATSNVTYGFPIMLVLMTAKIVGDVFIEGLYDMHIQLQSVPFLHWEAPVTSHSLTAREVMSTPVTCLRRREKVGVIVDVLSDTASNHNGFPVVEHADDTQPARLQGLILRSQLIVLLKHKVFVERSNLGLVQRRLRLKDFRDAYPRFPPIQSIHVSQDERECTMDLSEFMNPSPYTVPQEASLPRVFKLFRALGLRHLVVVDNRNQVVGLVTRKDLARYRLGKRGLEELSLAQT [CLCN7] | 52.9 | 52.6 | 0.135 | -0.102 | -0.189 | -0.116 |
| MAPKKRPETQKTSEIVLRPRNKRSRSPLELEPEAKKLCAKGSGPSRRCDSDCLWVGLAGPQILPPCRSIVRTLHQHKLGRASWPSVQQGLQQSFLHTLDSYRILQKAAPFDRRATSLAWHPTHPSTVAVGSKGGDIMLWNFGIKDKPTFIKGIGAGGSITGLKFNPLNTNQFYASSMEGTTRLQDFKGNILRVFASSDTINIWFCSLDVSASSRMVVTGDNVGNVILLNMDGKELWNLRMHKKKVTHVALNPCCDWFLATASVDQTVKIWDLRQVRGKASFLYSLPHRHPVNAACFSPDGARLLTTDQKSEIRVYSASQWDCPLGLIPHPHRHFQHLTPIKAAWHPRYNLIVVGRYPDPNFKSCTPYELRTIDVFDGNSGKMMCQLYDPESSGISSLNEFNPMGDTLASAMGYHILIWSQEEARTRK [DDB2] | 55.7 | 56.7 | -1.8 | -2.6 | -0.0537 | -0.078 |
